Some results are limits rather than exact numbers.

What all share (experiment): BLI
Holding throughout (conditions): both partners purified

Experiment [1] addresses T1, SARS-CoV-2 Delta RBD, His-tagged (SARS-CoV-2 Delta (B.1.617.2), strain).
T1 construct: not shown: 8xHis, C-terminal, kept

Experiment [2] has as its target T2, SARS-CoV-2 Omicron BA.1 RBD, His-tagged (SARS-CoV-2 Omicron BA.1, strain).
T2 construct: not shown: 8xHis, C-terminal, kept

The target of experiment [3] is T3, SARS-CoV-2 Omicron BA.5 RBD, His-tagged (SARS-CoV-2 Omicron BA.5, strain).
T3 construct: not shown: 8xHis, C-terminal, kept

Experiment [4] has as its target T4, SARS-CoV-2 Omicron BF.7 RBD, His-tagged (SARS-CoV-2 Omicron BF.7, R346T).
T4 construct: not shown: 8xHis, C-terminal, kept

For experiment [5], the target named is T5, SARS-CoV-2 Delta spike RBD-His (SARS-CoV-2 Delta (B.1.617.2), strain).
T5 construct: not shown: His8, C-terminal, kept

The target in experiment [6] is T6, SARS-CoV-2 Omicron BF.7 spike RBD-His (SARS-CoV-2 Omicron BF.7, strain).
T6 construct: not shown: His8, C-terminal, kept

Experiment [7] deals with T7, SARS-CoV-2 Omicron BA.5 spike RBD-His (SARS-CoV-2 Omicron BA.5, strain).
T7 construct: not shown: His8, C-terminal, kept

Experiment [8] concerns the target T8, SARS-CoV-2 Omicron BA.1 spike RBD-His (SARS-CoV-2 Omicron BA.1, strain).
T8 construct: not shown: His8, C-terminal, kept

For experiment [9], the target named is T9, SARS-CoV-2 Omicron XBB.1.16 RBD, His-tagged (SARS-CoV-2 Omicron XBB.1.16, R346T | L368I | V445P | T478R | F486P | F490S).
T9 construct: not shown: 8xHis, C-terminal, kept

Experiment [10] deals with T10, SARS-CoV-2 Omicron XBB RBD, His-tagged (SARS-CoV-2 Omicron XBB, R346T | L368I | V445P | F486S | F490S).
T10 construct: not shown: 8xHis, C-terminal, kept

For experiment [11], the target named is T11, SARS-CoV-2 Omicron XBB.1.16 spike RBD-His (SARS-CoV-2 Omicron XBB.1.16, R346T | L368I | V445P | F486P | F490S | T478R).
T11 construct: not shown: His8, C-terminal, kept

Experiment [12] addresses T12, SARS-CoV-2 Omicron XBB spike RBD-His (SARS-CoV-2 Omicron XBB, strain).
T12 construct: not shown: His8, C-terminal, kept

B1: LY-CoV1404 (also known as bebtelovimab) (antibody, V domains shown)
VH: QITLKESGPTLVKPTQTLTLTCTFSGFSLSISGVGVGWLRQPPGKALEWLALIYWDDDKRYSPSLKSRLTISKDTSKNQVVLKMTNIDPVDTATYYCAHHSISTIFDHWGQGTLVTVSS
VL: QSALTQPASVSGSPGQSITISCTATSSDVGDYNYVSWYQQHPGKAPKLMIFEVSDRPSGISNRFSGSKSGNTASLTISGLQAEDEADYYCSSYTTSSAVFGGGTKLTVL
notes: control antibody
As for B1, the Kd in [1], in experiment [2], in experiment [3] and in [4] was less than 0.001 nM each time. Also, the koff in [1], in experiment [2], in experiment [3] and in experiment [4] was less than 1e-07 s⁻¹ throughout. Moreover, the on-rate (kon) (commonly the rate constant with which the complex forms) in experiment [1] turned out to be 244000 M⁻¹ s⁻¹; in [2] it was 32200 M⁻¹ s⁻¹; in experiment [3], 40500 M⁻¹ s⁻¹; in [4], 46800 M⁻¹ s⁻¹.

B2: LY-CoV1404 (bebtelovimab) (antibody, V domains shown)
VH: QITLKESGPTLVKPTQTLTLTCTFSGFSLSISGVGVGWLRQPPGKALEWLALIYWDDDKRYSPSLKSRLTISKDTSKNQVVLKMTNIDPVDTATYYCAHHSISTIFDHWGQGTLVTVSS
VL: QSALTQPASVSGSPGQSITISCTATSSDVGDYNYVSWYQQHPGKAPKLMIFEVSDRPSGISNRFSGSKSGNTASLTISGLQAEDEADYYCSSYTTSSAVFGGGTKLTVL
For the molecule B2, the equilibrium dissociation constant (Kd) in experiment [5], in [6], in experiment [7] and in [8] was less than 0.001 nM in each case. Besides, the off-rate constant (koff) in experiment [5], in experiment [6], in [7] and in experiment [8] was less than 1e-07 s⁻¹ each time. In addition, the kon in [5] came out at 244000 M⁻¹ s⁻¹; in experiment [6], 46800 M⁻¹ s⁻¹; in experiment [7], 40400 M⁻¹ s⁻¹; in experiment [8], 32200 M⁻¹ s⁻¹.

B3: neutralizing antibody 7F3 (antibody, V domains shown)
VH: EVQLVESGGGLVKPGRSLRLSCTASGFTFGDYAMSWFRQAPGKGLEWVGFIRSKAYGGTTEYAASVKGRFTISRDDSKSIAYLQMNSLKTEDTAVYYCTRDRYARYDILTGLSPAGADYFYYAMDVWGQGTTVTVSS
VL: EIVLTQSPATLSLSPGERATLSCRASQSVSSYLAWYQQKPGQAPRLLIYDASNRATGIPARFSGSGSGTDFTLTISSLEPEDFAVYYCQQRSNWPQYTFGQGTKLEIK
Turning to B3, the Kd (usually the concentration at which binding is half-saturated) is 20.8 nM in experiment [1], 1280 nM in [4], 28.6 nM in experiment [9] and 19.9 nM in [10]. The off-rate constant (koff) (usually the rate constant with which the complex falls apart) in experiment [1] came out at 0.000914 s⁻¹; in experiment [4], 0.0412 s⁻¹; in [9] it was 0.0048 s⁻¹; in [10], 0.00113 s⁻¹. Moreover, the on-rate (kon) came out at 44000 M⁻¹ s⁻¹ in [1], 32100 M⁻¹ s⁻¹ in experiment [4], 168000 M⁻¹ s⁻¹ in [9] and 56600 M⁻¹ s⁻¹ in experiment [10].

B4: 7F3 neutralizing antibody (IgG) (antibody, V domains shown)
VH: EVQLVESGGGLVKPGRSLRLSCTASGFTFGDYAMSWFRQAPGKGLEWVGFIRSKAYGGTTEYAASVKGRFTISRDDSKSIAYLQMNSLKTEDTAVYYCTRDRYARYDILTGLSPAGADYFYYAMDVWGQGTTVTVSS
VL: EIVLTQSPATLSLSPGERATLSCRASQSVSSYLAWYQQKPGQAPRLLIYDASNRATGIPARFSGSGSGTDFTLTISSLEPEDFAVYYCQQRSNWPQYTFGQGTKLEIK
For B4, the equilibrium dissociation constant (Kd) amounted to 20.8 nM in experiment [5], 1280 nM in experiment [6], 28.6 nM in experiment [11] and 19.9 nM in experiment [12]. In addition, the off-rate (koff) is 0.000914 s⁻¹ in [5], 0.0412 s⁻¹ in experiment [6], 0.0048 s⁻¹ in experiment [11] and 0.00112 s⁻¹ in experiment [12]. Besides, the kon in [5] stood at 44000 M⁻¹ s⁻¹; in experiment [6], 32100 M⁻¹ s⁻¹; in experiment [11] it was 168000 M⁻¹ s⁻¹; in [12], 56600 M⁻¹ s⁻¹.
